This is an account of results in patent USRE49847 (dated 2024).

Where a chain is given by its changes, count along the chain named. Some results are limits rather than exact numbers.

The labels stand for the following.
B1: CD22-53 CAR (other)
chain: EVQLQQSGPGLVKPSQTLSLTCAISGDSVSSNSAAWNWIRQSPSRGLEWLGRTYYRSKWYSDYAVSVKSRITINPDTSKNQFSLQLNSVTPEDTAVYYCARDPYDFWSGYPDAFDIWGQGTMVTVSSGGGGSGGGGSGGGGSQSALTQPASVSGSPGQSITISCTGTSSDVGGYNYVSWYQQHPGKAPKVIISEVNNRPSGVSHRFSGSKSGNTASLTISGLQAEDEADYFCSSYTSGRTLYVFGTGSKVTVLG
notes: Control CD22 CAR; not shown: hinge, transmembrane, 4-1BB and CD3zeta parts of the CAR
B2: CD22-57 CAR (other)
chain: EVQLQQSGPGLVKPSQTLSLTCAISGDSVSNNNAAWNWIRQSPSRGLEWLGRTYHRSTWYNDYVGSVKSRITINPDTSKNQFSLQLNSVTPEDTAVYYCARETDYGDYGAFDIWGQGTTVTVSSGGGGSGGGGSGGGGSQSALTQPASVSGSPGQSITISCTGSRNDIGAYESVSWYQQHPGNAPKLIIHGVNNRPSGVFDRFSVSQSGNTASLTISGLQAEDEADYYCSSHTTTSTLYVFGTGTKVTVL
notes: CAR on primary human T cells; not shown: hinge, transmembrane, 4-1BB and CD3zeta parts of the CAR
B3: CD22-65 CAR (other)
chain: EVQLQQSGPGLVKPSQTLSLTCAISGDSMLSNSDTWNWIRQSPSRGLEWLGRTYHRSTWYDDYASSVRGRVSINVDTSKNQYSLQLNAVTPEDTGVYYCARVRLQDGNSWSDAFDVWGQGTMVTVSSGGGGSGGGGSGGGGSQSALTQPASASGSPGQSVTISCTGTSSDVGGYNYVSWYQQHPGKAPKLMIYDVSNRPSGVSNRFSGSKSGNTASLTISGLQAEDEADYYCSSYTSSSTLYVFGTGTQLTVLTTTPAPRPPTPAPTIASQPLSLRPEACRPAAGGAVHTRGLDFACDIYIWAPLAGTCGVLLLSLVITLYCKRGRKKLLYIFKQPFMRPVQTTQEEDGCSCRFPEEEEGGCELRVKFSRSADAPAYKQGQNQLYNELNLGRREEYDVLDKRRGRDPEMGGKPRRKNPQEGLYNELQKDKMAEAYSEIGMKGERRRGKGHDGLYQGLSTATKDTYDALHMQALPPR
notes: also called CD22-65_Zmut
B4: CD22-60 CAR (other)
chain: EVQLQQSGPGLVKPSQTLSLTCAISGDSVLSNSDTWNWIRQSPSRGLEWLGRTYHRSTWYDDYASSVRGRVSINVDTSKNQYSLQLNAVTPEDTGVYYCARDRLQDGNSWSDAFDVWGQGTMVTVSSGGGGSGGGGSGSGGSQSALTQPASVSGSPGQSITFSCTGTSSDIGGYNYVSWYQQHPGKAPKLMIYEVSNRPSGVSNRFSGTKSGNTASLTISGLQAEDEADYYCSSYTSSSTLYVFGTGTKLTVL
notes: as for B2
B5: CD22-64 CAR (other)
chain: EVQLQQSGPGLVKPSQTLPLTCAISGDSVLSNSDTWNWIRQSPSRGLEWLGRTYHRSTWYDDYASSVRGRVSINVDTSKNQYSLQLNAVTPEDTGVYYCARVRLQDGNSWSDAFDVWGQGTMVTVSSGGGGSGGGGSGGGGPQSALTQPASASGSPGQSVTISCTGTSSDVGGYNYVSWYQQHPGKAPKLMIYDVSNRPSGVSNRFSGSKSGNTASLTISGLQAEDEADYYCSSYTSSSTLYVFGTGTQLTVL
notes: as for B2
B6: CD22-61 CAR (other)
chain: B4 chain with E1Q, Q6E, F162I, I171V, T209S, L250V
notes: as for B2
B7: CD22-63 CAR (other)
chain: B4 chain with S139G, F162I, I171V, T209S, V243I, L250V
notes: as for B2
B8: CD22-58 CAR (other)
chain: EVQLQQSGPGLVNPSQTLSITCAISGDSVSSNSAAWNWIRQSPSRGLEWLGRTFYRSKWYNDYAVSVKGRITISPDTSKNQFSLQLNSVTPEDTAVYYCAGGDYYYGLDVWGQGTTVTVSSGGGGSGGGGSGGGGSQSALTQPASVSGSPGQSITISCTGSSSDVGGYNSVSWYQQHPGKAPKLMIYEVINRPSGVSHRFSGSKSGNTASLTISGLQAEDEADYYCSSYTSSSTYVFGTGTKVTVL
notes: as for B2

The experiment addresses T1, soluble CD22-Fc (R&D Systems) (UniProt P20273 20-687).
T1 construct: Bought reagent used to stain CD22 CARs; not shown: Fc part; detected with anti-human IgG Fc-gamma secondary
T1 sequence (looked up): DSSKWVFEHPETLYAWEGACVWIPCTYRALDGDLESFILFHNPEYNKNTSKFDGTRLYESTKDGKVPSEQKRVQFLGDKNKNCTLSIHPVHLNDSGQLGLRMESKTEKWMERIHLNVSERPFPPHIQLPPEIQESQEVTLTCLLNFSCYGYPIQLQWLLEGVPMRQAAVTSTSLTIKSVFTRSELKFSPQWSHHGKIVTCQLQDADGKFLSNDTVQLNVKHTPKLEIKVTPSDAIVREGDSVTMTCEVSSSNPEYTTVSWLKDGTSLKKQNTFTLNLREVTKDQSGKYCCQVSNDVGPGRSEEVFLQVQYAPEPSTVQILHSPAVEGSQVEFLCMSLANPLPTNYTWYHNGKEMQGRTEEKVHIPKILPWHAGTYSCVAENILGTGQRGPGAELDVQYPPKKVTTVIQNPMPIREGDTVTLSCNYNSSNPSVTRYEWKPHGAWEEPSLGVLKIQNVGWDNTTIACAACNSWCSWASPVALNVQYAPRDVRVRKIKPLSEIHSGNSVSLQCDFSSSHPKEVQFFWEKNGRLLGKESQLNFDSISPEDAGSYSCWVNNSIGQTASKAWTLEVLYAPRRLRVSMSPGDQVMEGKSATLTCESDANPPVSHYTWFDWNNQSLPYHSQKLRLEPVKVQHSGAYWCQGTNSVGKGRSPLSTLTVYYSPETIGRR
The experiment in a line: flow cytometry, soluble CD22-Fc plus anti-human Fc-PE on CAR-transduced primary T cells (FIG. 4). On the technique in general: In flow cytometry, cells or beads pass a laser one at a time.
For B1, the MFI is over 20000.

Take B2: the MFI is over 20000.

Regarding B3, the MFI is over 20000.

As for B4, the MFI was over 20000.

Consider B5, for which the MFI was over 20000.

Turning to B6, the MFI was over 20000.

As to B7, the MFI was over 20000.

For B8, the MFI came to 5700.
